B1: Complement receptor type 2 (Homo sapiens), P20023 (parent)
chain: MGAAGLLGVFLALVAPGVLGISCGSPPPILNGRISYYSTPIAVGTVIRYSCSGTFRLIGEKSLLCITKDKVDGTWDKPAPKCEYFNKYSSCPEPIVPGGYKIRGSTPYRHGDSVTFACKTNFSMNGNKSVWCQANNMWGPTRLPTCVSVFPLECPALPMIHNGHHTSENVGSIAPGLSVTYSCESGYLLVGEKIINCLSSGKWSAVPPTCEEARCKSLGRFPNGKVKEPPILRVGVTANFFCDEGYRLQGPPSSRCVIAGQGVAWTKMPVCEEIFCPSPPPILNGRHIGNSLANVSYGSIVTYTCDPDPEEGVNFILIGESTLRCTVDSQKTGTWSGPAPRCELSTSAVQCPHPQILRGRMVSGQKDRYTYNDTVIFACMFGFTLKGSKQIRCNAQGTWEPSAPVCEKECQAPPNILNGQKEDRHMVRFDPGTSIKYSCNPGYVLVGEESIQCTSEGVWTPPVPQCKVAACEATGRQLLTKPQHQFVRPDVNSSCGEGYKLSGSVYQECQGTIPWFMEIRLCKEITCPPPPVIYNGAHTGSSLEDFPYGTTVTYTCNPGPERGVEFSLIGESTIRCTSNDQERGTWSGPAPLCKLSLLAVQCSHVHIANGYKISGKEAPYFYNDTVTFKCYSGFTLKGSSQIRCKADNTWDPEIPVCEKETCQHVRQSLQELPAGSRVELVNTSCQDGYQLTGHAYQMCQDAENGIWFKKIPLCKVIHCHPPPVIVNGKHTGMMAENFLYGNEVSYECDQGFYLLGEKKLQCRSDSKGHGSWSGPSPQCLRSPPVTRCPNPEVKHGYKLNKTHSAYSHNDIVYVDCNPGFIMNGSRVIRCHTDNTWVPGVPTCIKKAFIGCPPPPKTPNGNHTGGNIARFSPGMSILYSCDQGYLLVGEALLLCTHEGTWSQPAPHCKEVNCSSPADMDGIQKGLEPRKMYQYGAVVTLECEDGYMLEGSPQSQCQSDHQWNPPLAVCRSRSLAPVLCGIAAGLILLTFLIVITLYVISKHRARNYYTDTSQKEAFHLEAREVYSVDPYNPAS

Variants of: B1
Details: with co3_human C3, P01024
Chain of co3_human C3, P01024 (P01024 whole entry): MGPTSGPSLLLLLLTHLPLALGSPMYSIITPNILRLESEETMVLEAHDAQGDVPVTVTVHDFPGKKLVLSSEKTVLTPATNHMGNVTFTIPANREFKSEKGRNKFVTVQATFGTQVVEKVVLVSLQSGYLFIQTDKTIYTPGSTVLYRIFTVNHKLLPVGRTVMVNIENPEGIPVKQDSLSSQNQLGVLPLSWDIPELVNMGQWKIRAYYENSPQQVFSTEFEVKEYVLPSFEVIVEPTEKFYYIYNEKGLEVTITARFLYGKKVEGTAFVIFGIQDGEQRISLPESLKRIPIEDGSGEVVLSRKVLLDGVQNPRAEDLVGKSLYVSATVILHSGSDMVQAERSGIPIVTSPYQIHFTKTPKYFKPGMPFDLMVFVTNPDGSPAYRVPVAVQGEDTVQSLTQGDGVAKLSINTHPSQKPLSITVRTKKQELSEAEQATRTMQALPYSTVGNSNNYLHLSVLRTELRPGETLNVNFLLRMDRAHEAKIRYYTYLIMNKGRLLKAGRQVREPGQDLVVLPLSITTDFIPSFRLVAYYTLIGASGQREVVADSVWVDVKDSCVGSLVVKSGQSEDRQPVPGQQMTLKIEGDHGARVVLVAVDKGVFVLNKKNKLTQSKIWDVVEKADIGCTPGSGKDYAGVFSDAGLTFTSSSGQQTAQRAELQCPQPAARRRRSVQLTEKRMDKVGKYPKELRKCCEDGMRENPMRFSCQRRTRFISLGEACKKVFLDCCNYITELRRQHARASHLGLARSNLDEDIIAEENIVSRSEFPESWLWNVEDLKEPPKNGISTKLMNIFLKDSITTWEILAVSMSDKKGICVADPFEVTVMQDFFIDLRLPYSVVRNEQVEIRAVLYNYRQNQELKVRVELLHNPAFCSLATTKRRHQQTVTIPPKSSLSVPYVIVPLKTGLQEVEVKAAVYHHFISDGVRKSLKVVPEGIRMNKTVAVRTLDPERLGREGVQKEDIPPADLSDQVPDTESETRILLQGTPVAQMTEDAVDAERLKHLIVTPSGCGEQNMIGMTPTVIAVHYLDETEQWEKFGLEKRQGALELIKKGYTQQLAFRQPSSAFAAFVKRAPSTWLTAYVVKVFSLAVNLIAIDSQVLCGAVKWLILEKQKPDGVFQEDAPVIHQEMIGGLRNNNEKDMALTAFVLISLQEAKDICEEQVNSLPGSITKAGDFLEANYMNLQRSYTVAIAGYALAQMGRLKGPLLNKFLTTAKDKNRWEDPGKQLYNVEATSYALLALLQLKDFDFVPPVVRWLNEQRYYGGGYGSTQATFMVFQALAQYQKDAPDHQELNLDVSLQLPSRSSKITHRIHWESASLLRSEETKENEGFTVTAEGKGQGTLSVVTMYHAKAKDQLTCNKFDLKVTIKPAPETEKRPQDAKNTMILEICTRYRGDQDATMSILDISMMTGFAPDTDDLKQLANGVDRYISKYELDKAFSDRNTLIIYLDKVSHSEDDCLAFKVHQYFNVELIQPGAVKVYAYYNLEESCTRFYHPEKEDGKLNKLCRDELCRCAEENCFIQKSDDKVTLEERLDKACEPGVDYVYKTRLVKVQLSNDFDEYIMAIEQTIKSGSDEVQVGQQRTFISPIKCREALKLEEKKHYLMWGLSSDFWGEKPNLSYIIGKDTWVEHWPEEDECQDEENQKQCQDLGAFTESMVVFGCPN

Variant | effect of a mutation on the interaction
K128A | decreasing interaction
D112A | decreasing interaction
R103A | decreasing interaction

Reference: IntAct's records for PubMed 21527715
